No end group written: not given here. *: point of attachment. Propanoyl(3-indol-3-yl) = O=C(CCc1c[nH]c2ccccc12)*; 125I = [125I]*
What was measured:
[1] = molecular target: T1, Human GPR8 receptor protein (human, UniProt P48146 1-333); experiment: competition with [125I-Tyr10]-hGPR8L(1-23), membrane fraction of GPR8 expressing CHO cells
T1 construct: Full-length receptor expressed in CHO dhfr- cells (CHO/GPR8)
Protocol: (§1) Cell membrane fraction prepared from Human GPR8 expressing cells was diluted to various concentration with assay buffer (25 mM Tris-HCl, 5 mM EDTA, 0.05% CHAPS (3-[(3-Cholamidopropyl) Dimethyl-Ammonio]-1-Propanesulfonate), 0.1% BSA, 0.25 mM PMSF, 1 μg/ml Pepstatin, 20 μg/ml Leupeptin, pH7.4), and 200 μl each of the diluent was dispensed into polypropilene test tube (Falcon 2053). In order to determine an amount of maximum binding (TB), […] of DMSO and 2 μl of 7 nM [¹²⁵I-Tyr²]-hGPR8L(1-23) or [¹²⁵I-Tyr¹⁰]-hGPR8L(1-23) were added to the membrane fraction solution. Further, in order to determine a non-specific binding (NSB), 2 μt of 100 μM hGPR8L(1-23)/DMSO solution and 2 μl of 7 nM [¹²⁵I]-Tyr²]-hGPR8L(1-23) or [¹²⁵I-Tyr¹⁰]-hGPR8L(1-23) were added to the membrane fraction solution. The reaction was done at 25° C. for 60 minutes, and the reaction mixture was filtered by suction filtration using Whatman glassfilter (GF-F) treated with polyethyleneimine. After filtration, a radioactivity remaining on the filter was counted using γ-counter, and an amount of specific binding (SB) was estimated by subtracting an amount of non-specific binding from an amount of maximum binding. Since the specific binding in the case where [¹²⁵I-Tyr¹⁰]-hGPR8L(1-23) was used, was twice as much as that in the case where [¹²⁵1-Tyr²]-hGPR8L(1-23) was used, in practice, [¹²⁵I-Tyr¹⁰]-hGPR8L(1-23) was used in the assay. When the concentration of membrane fraction was changed, a specific binding of [¹²⁵I-Tyr¹⁰]-hGPR8L(1-23) was perceived depending on the concentration of membrane fraction.
A receptor binding activity of human- and porcine-homologue derivatives of GPR8 ligand peptide, wherein the synthesis method has been described in the specification, was measured using a membrane fraction of GPR8 expressing CHO cells and [¹²⁵-Tyr¹⁰]-hGPR8L(1-23) by the method described in Reference Example 43.

[2] = molecular target: T1, Human GPR8 receptor protein; experiment: cell-based or functional assay
Human GPR7 [3] = molecular target: T2, Human GPR7 (human, UniProt P48145 1-328); experiment: competition with [125I-Tyr10]-hGPR8L(1-23), membrane fraction of GPR7 expressing CHO cells
T2 construct: Full-length receptor expressed in CHO dhfr- cells; also called Human GPR7 receptor; GPR7 receptor
T2 sequence: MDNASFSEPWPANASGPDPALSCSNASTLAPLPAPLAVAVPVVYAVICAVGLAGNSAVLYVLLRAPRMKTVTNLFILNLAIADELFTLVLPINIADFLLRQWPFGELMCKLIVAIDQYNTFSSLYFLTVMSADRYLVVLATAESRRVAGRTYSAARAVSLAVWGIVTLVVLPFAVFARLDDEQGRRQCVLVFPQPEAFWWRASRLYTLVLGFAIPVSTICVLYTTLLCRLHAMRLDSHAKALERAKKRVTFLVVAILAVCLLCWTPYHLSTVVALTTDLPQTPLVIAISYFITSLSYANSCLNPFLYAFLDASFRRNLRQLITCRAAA

[4] = molecular target: T3, TGR26, rat-derived G protein-coupled receptor protein (rat, UniProt Q56UD9 1-329); experiment: competition with [125I-Tyr10]-hGPR8L(1-23), membrane fraction of TGR26 expressing CHO cells
T3 construct: Expressed in CHO dhfr- cells from pAK-rGPR7; also called rat TGR26; TGR26 receptor
T3 sequence: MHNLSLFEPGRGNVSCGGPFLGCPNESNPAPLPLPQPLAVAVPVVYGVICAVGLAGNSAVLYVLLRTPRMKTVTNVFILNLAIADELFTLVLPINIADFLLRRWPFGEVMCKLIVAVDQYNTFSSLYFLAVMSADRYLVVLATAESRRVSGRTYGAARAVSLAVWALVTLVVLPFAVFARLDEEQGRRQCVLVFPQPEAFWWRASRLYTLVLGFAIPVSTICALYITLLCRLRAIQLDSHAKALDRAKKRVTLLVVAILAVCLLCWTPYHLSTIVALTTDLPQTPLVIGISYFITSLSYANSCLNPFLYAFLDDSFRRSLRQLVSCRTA
Protocol: (§2) Cell membrane fraction prepared from TGR26 expressing cells was diluted to various concentration with assay buffer (25 mM Tris-HCl, 5 mM EDTA, 0.05% CHAPS (3-[(3-Cholamidopropyl) Dimethyl-Ammonio]-1-Propanesulfonate), 0.1% BSA, 0.5 mM PMSF, 1 μg/ml Pepstatin, 20 μg/ml Leupeptin, 4 μg/ml E-64, pH7.4), and 200 μl each of the diluent was dispensed into polypropilene test tube (Falcon 2053). In order to determine an amount of maximum binding, 2 μl of DMSO and 2 μl of 7 nM [¹²⁵-Tyr¹⁰]-hGPR8L(1-23) were added to the membrane fraction solution. Further, in order to determine a non-specific binding, 2 μl of 100 μM hGPR8L(1-23)/DMSO solution and 2 μl of 7 nM [¹²⁵I]-Tyr¹⁰]-hGPR8L(1-23) were added to the membrane fraction solution. The reaction was done at 25° C. for 75 minutes, and the reaction mixture was filtered by suction filtration using Whatman glassfilter (GF-F) treated with polyethyleneimine. In addition, the filter was washed twice with 1.5 ml of washing buffer (25 mM Tris-HCl, 5 mM EDTA, 0.05% CHAPS, 0.1% BSA, pH7.4). After filtration, a radioactivity remaining on the filter was counted using γ-counter, and an amount of specific binding was estimated by subtracting an amount of non-specific binding from an amount of maximum binding.
A receptor binding activity of human- and porcine-homologue derivatives of GPR8 ligand peptide obtained in the reference examples was measured using a membrane fraction of TGR26 expressing CHO cells and [¹²⁵I-Tyr¹⁰]-hGPR8L(1-23) by the method described in Reference Example 73.

Human GPR7 [5] = molecular target: T2, Human GPR7; experiment: cell-based or functional assay
[6] = molecular target: T3, TGR26, rat-derived G protein-coupled …; experiment: radioligand filter binding, membrane fraction of TGR26 expressing CHO cells
Protocol: as §2, with “binding. […]” for “binding.”

[7] = molecular target: T1, Human GPR8 receptor protein; experiment: radioligand filter binding, membrane fraction of Human GPR8 expressing CHO cells
Protocol: Using [¹²⁵I]-labeled hGPR8L(1-23) prepared as described in Reference Example 42 and a cell membrane fraction prepared from Human GPR8 expressing cells by the similar manner as described in Reference Example 6, a receptor binding assay was carried out as follows.
as §1, with “The reaction was done at 25° C. for 60 minutes, and the reaction mixture was filtered by suction filtration using Whatman glassfilter (GF-F) treated with polyethyleneimine.” left out, “Since the specific binding in the case where [¹²⁵I-Tyr¹⁰]-hGPR8L(1-23) was used, was twice as much as that in the case where [¹²⁵1-Tyr²]-hGPR8L(1-23) was used, in practice, [¹²⁵I-Tyr¹⁰]-hGPR8L(1-23) was used in the assay. When the concentration of membrane fraction was changed, a specific binding of [¹²⁵I-Tyr¹⁰]-hGPR8L(1-23) was perceived depending on the concentration of membrane fraction.” left out

Human GPR7 [8] = molecular target: T2, Human GPR7; experiment: radioligand filter binding, membrane fraction of Human GPR7 expressing CHO cells
Human GPR7 [9] = molecular target: T2, Human GPR7; experiment: cell-based or functional assay; remark: listed apart in the source

T1 sequence (P48146 whole entry): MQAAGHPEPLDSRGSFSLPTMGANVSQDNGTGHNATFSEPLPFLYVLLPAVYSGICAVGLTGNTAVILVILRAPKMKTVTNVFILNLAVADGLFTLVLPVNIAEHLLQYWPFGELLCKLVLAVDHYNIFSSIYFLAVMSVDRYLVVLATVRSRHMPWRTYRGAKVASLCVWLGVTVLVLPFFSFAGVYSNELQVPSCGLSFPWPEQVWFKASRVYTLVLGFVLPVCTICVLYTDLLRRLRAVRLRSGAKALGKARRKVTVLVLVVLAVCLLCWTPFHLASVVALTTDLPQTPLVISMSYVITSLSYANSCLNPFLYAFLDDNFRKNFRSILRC

B1: [D-Trp^1]-Human GPR8 ligand (1-23) (peptide)
peptide: XYKHVASPRYHTVGRAAGLLMGL
modifications: D-Trp at position 1
notes: also called [D-Trp^1]-hGPR8L(1-23)
[1]
  IC50: 0.82 nM
[2]
  Promoting activity to GTPγS binding (EC50 nM): 7.1 nM
Human GPR7 [3]
  IC50: 0.63 nM
[4]
  IC50: 1.3 nM
Human GPR7 [5]
  Promoting activity to GTPγS binding (EC50 nM): 2.3 nM

B2: Human GPR8 ligand (1-20) (peptide)
peptide: WYKHVASPRYHTVGRAAGLL
notes: also called hGPR8L(1-20)
[1]
  IC50: 0.2 nM
[2]
  Promoting activity to GTPγS binding (EC50 nM): 0.86 nM
Human GPR7 [3]
  IC50: 0.094 nM
[4]
  IC50: 0.17 nM
Human GPR7 [5]
  Promoting activity to GTPγS binding (EC50 nM): 0.88 nM

B3: Human GPR8 ligand (9-23) (peptide)
peptide: RYHTVGRAAGLLMGL
notes: also called hGPR8L(9-23)
[1]
  IC50: 1300 nM
[2]
  Promoting activity to GTPγS binding (EC50 nM): 4200 nM
Human GPR7 [3]
  IC50: 2200 nM
[4]
  IC50: 2500 nM
Human GPR7 [5]
  Promoting activity to GTPγS binding (EC50 nM): > 10000 nM

B4: Human GPR8 ligand (4-23) (peptide)
peptide: HVASPRYHTVGRAAGLLMGL
notes: also called hGPR8L(4-23)
[1]
  IC50: 1400 nM
[2]
  Promoting activity to GTPγS binding (EC50 nM): 6700 nM
Human GPR7 [3]
  IC50: 1200 nM
[4]
  IC50: 2000 nM
Human GPR7 [5]
  Promoting activity to GTPγS binding (EC50 nM): > 10000 nM

B5: Human GPR8 ligand (2-23) (peptide)
peptide: YKHVASPRYHTVGRAAGLLMGL
notes: also called hGPR8L(2-23)
[1]
  IC50: 160 nM
[2]
  Promoting activity to GTPγS binding (EC50 nM): 3900 nM
Human GPR7 [3]
  IC50: 140 nM
[4]
  IC50: 240 nM
Human GPR7 [5]
  Promoting activity to GTPγS binding (EC50 nM): 7410 nM

B6: Fmoc-added Human GPR8L (1-23) (peptide)
peptide: XYKHVASPRYHTVGRAAGLLMGL
modifications: N-terminal Fmoc (N-9-fluorenylmethoxycarbonyl) on Trp 1
notes: also called Fmoc-hGPR8L(1-23); Human GPR8 ligand (1-23) modified by Fmoc
[1]
  IC50: 0.2 nM
[2]
  Promoting activity to GTPγS binding (EC50 nM): 240 nM
Human GPR7 [3]
  IC50: 0.14 nM
[4]
  IC50: 0.23 nM
Human GPR7 [5]
  Promoting activity to GTPγS binding (EC50 nM): 6.6 nM

B7: [N^α-Acetyl-Trp^1]-Human GPR8 ligand (1-23) (peptide)
peptide: XYKHVASPRYHTVGRAAGLLMGL
modifications: N-alpha-acetyl on Trp 1
notes: also called Ac-hGPR8L(1-23)
[1]
  IC50: 2.4 nM
[2]
  Promoting activity to GTPγS binding (EC50 nM): 14 nM
Human GPR7 [3]
  IC50: 0.077 nM
[4]
  IC50: 0.27 nM
Human GPR7 [5]
  Promoting activity to GTPγS binding (EC50 nM): 1.5 nM

B8: Human GPR8 ligand (1-23) oxidant (peptide)
peptide: WYKHVASPRYHTVGRAAGLLXGL
modifications: methionine sulfoxide, Met(O), at position 21
notes: also called [MET(O)]-hGPR8L(1-23)
[1]
  IC50: 0.31 nM
[2]
  Promoting activity to GTPγS binding (EC50 nM): 1.4 nM
Human GPR7 [3]
  IC50: 0.17 nM
[4]
  IC50: 0.29 nM
Human GPR7 [5]
  Promoting activity to GTPγS binding (EC50 nM): 1.6 nM

B9: Human GPR8 ligand (1-18) (peptide)
peptide: WYKHVASPRYHTVGRAAG
notes: also called hGPR8L(1-18)
[1]
  IC50: 2700 nM
[2]
  Promoting activity to GTPγS binding (EC50 nM): > 10000 nM
Human GPR7 [3]
  IC50: 2400 nM
[4]
  IC50: 760 nM
Human GPR7 [5]
  Promoting activity to GTPγS binding (EC50 nM): 6200 nM

B10: [^125I-Tyr^10]-hGPR8L(1-23) (peptide)
peptide: WYKHVASPRY(125I)HTVGRAAGLLMGL
[6]
  binding result: binds
[7]
  binding result: binds
Human GPR7 [8]
  binding result: binds

B11: porcine GPR8 ligand (1-23) (peptide)
peptide: WYKHTASPRYHTVGRAAGLLMGL
notes: also called pGPR8L(1-23); porcine homologue of GPR8 ligand peptide
[1]
  IC50: 0.38 nM
[2]
  Promoting activity to GTPγS binding (EC50 nM): 1.5 nM
Human GPR7 [3]
  IC50: 0.066 nM
[4]
  IC50: 0.12 nM
Human GPR7 [5]
  Promoting activity to GTPγS binding (EC50 nM): 0.35 nM

B12: Human GPR8 ligand (1-19) (peptide)
peptide: WYKHVASPRYHTVGRAAGL
notes: also called hGPR8L(1-19)
[1]
  IC50: 100 nM
[2]
  Promoting activity to GTPγS binding (EC50 nM): 1000 nM
Human GPR7 [3]
  IC50: 1.7 nM
[4]
  IC50: 9.9 nM
Human GPR7 [5]
  Promoting activity to GTPγS binding (EC50 nM): 84 nM

B13: human homologue of GPR8 ligand peptide consisting of 30 residues (peptide)
peptide: WYKHVASPRYHTVGRAAGLLMGLRRSPYLW
notes: also called hGPR8L(1-30); Human GPR8 ligand (1-30)
Human GPR7 [3]
  IC50: 0.025 nM
Human GPR7 [5]
  Promoting activity to GTPγS binding (EC50 nM): 0.67 nM
Human GPR7 [9]
  inhibition of intracellular cAMP production (IC50): 0.13 nM

B14: [^125I-Tyr^2]-hGPR8L(1-23) (peptide)
peptide: WY(125I)KHVASPRYHTVGRAAGLLMGL
[7]
  binding result: binds

B15: [N-Acetyl-Tyr^2]-Human GPR8 ligand (2-23) (peptide)
peptide: Ac-YKHVASPRYHTVGRAAGLLMGL
notes: also called Ac-hGPR8L(2-23)
[1]
  IC50: 420 nM
[2]
  Promoting activity to GTPγS binding (EC50 nM): 7200 nM
Human GPR7 [3]
  IC50: 570 nM
[4]
  IC50: 570 nM
Human GPR7 [5]
  Promoting activity to GTPγS binding (EC50 nM): 7000 nM

B16: [N-3-Indolepropanoyl-Tyr^2]-human GPR8 ligand (2-23) (peptide)
peptide: {Propanoyl(3-indol-3-yl)}-YKHVASPRYHTVGRAAGLLMGL
notes: also called IndPr-hGPR8L(2-23)
[1]
  IC50: 0.28 nM
[2]
  Promoting activity to GTPγS binding (EC50 nM): 5 nM
Human GPR7 [3]
  IC50: 0.044 nM
[4]
  IC50: 0.12 nM
Human GPR7 [5]
  Promoting activity to GTPγS binding (EC50 nM): 0.85 nM

Source: patent publication US20050124539A1 (Takeda / Millennium, published 2005)
